The source of these data is US20060110396A1.

The target in the experiment is Human CDw52 (human) (UniProt P31358). Briefly: cell-based or functional assay.

Substance CAMPATH (antibody) registered a 51Cr release assay, lysis (apoptosis) of macrophage-cell line THP-1 after 18 h of 70% and a 51Cr release assay, lysis (apoptosis) of macrophage-cell line U-937 after 18 h of 55%.
